This is an account of results in US20160130315A1 (AJOU UNIVERSITY INDUSTRY ACADEMIC COOPERATION FOUNDATION, published 2016).

This assay concerns the target T1, Fc (human, UniProt P01857-1 104-330 = IgG part, limits assumed).
T1 construct: domain: Fc (hinge-CH2-CH3); Control without TPP; also called control group Fc; antibody heavy-chain constant region
The assay is described as follows: FACS on cells carrying neuropilin-1 and -2.

B1: neuropilin-2 expressed on cell surface (receptor, human, UniProt O60462 21-931, looked up)
chain: RGQPDPPCGGRLNSKDAGYITSPGYPQDYPSHQNCEWIVYAPEPNQKIVLNFNPHFEIEKHDCKYDFIEIRDGDSESADLLGKHCGNIAPPTIISSGSMLYIKFTSDYARQGAGFSLRYEIFKTGSEDCSKNFTSPNGTIESPGFPEKYPHNLDCTFTILAKPKMEIILQFLIFDLEHDPLQVGEGDCKYDWLDIWDGIPHVGPLIGKYCGTKTPSELRSSTGILSLTFHTDMAVAKDGFSARYYLVHQEPLENFQCNVPLGMESGRIANEQISASSTYSDGRWTPQQSRLHGDDNGWTPNLDSNKEYLQVDLRFLTMLTAIATQGAISRETQNGYYVKSYKLEVSTNGEDWMVYRHGKNHKVFQANNDATEVVLNKLHAPLLTRFVRIRPQTWHSGIALRLELFGCRVTDAPCSNMLGMLSGLIADSQISASSTQEYLWSPSAARLVSSRSGWFPRIPQAQPGEEWLQVDLGTPKTVKGVIIQGARGGDSITAVEARAFVRKFKVSYSLNGKDWEYIQDPRTQQPKLFEGNMHYDTPDIRRFDPIPAQYVRVYPERWSPAGIGMRLEVLGCDWTDSKPTVETLGPTVKSEETTTPYPTEEEATECGENCSFEDDKDLQLPSGFNCNFDFLEEPCGWMYDHAKWLRTTWASSSSPNDRTFPDDRNFLRLQSDSQREGQYARLISPPVHLPRSPVCMEFQYQATGGRGVALQVVREASQESKLLWVIREDQGGEWKHGRIILPSYDMEYQIVFEGVIGKGRSGEIAIDDIRISTDVPLENCMEPISAFAGENFKVDIPEIHEREGYEDEIDDEYEVDWSNSSSATSGSGAPSTDKEKSWLYTLDPILITIIAMSSLGVLLGATCAGLLLYCTCSYSGLSSRSCTTLENYNFELYDGLKHKVKMNHQKCCSEA
notes: whole, on cells; Endogenous expression; the same cells also carry neuropilin-1; also called NRP2
As for B1, the binding result is “no binding (tested: 1 µM)”.
